US20240108738A1 (Bicycle, published 2024)
Numbered stars: 1 amine (or outer) side, 2 acyl side, 3 side chain; on linkers, the order of the positions; unused ones are H or OH. Bridge positions count the residues as written; N and C are the ends. Square brackets hold non-standard residues; d marks the D form. Ends that are not written are not given here. TATA = O=C(CC[*:1])N1CN(C(=O)CC[*:2])CN(C(=O)CC[*:3])C1; Trp(5-F) = N[C@@H](Cc1c[nH]c2ccc(F)cc12)C(=O)O; Trp(6-F) = N[C@@H](Cc1c[nH]c2cc(F)ccc12)C(=O)O; Trp(6-Me) = Cc1ccc2c(C[C@H](N)C(=O)O)c[nH]c2c1; Trp(7-Me) = Cc1cccc2c(C[C@H](N)C(=O)O)c[nH]c12; Trp(2-Me) = Cc1[nH]c2ccccc2c1C[C@H](N)C(=O)O; Tyr(2-F) = N[C@@H](Cc1ccc(O)cc1F)C(=O)O; Ala(2-furyl) = N[C@@H](Cc1ccco1)C(=O)O; Dopa = N[C@@H](Cc1ccc(O)c(O)c1)C(=O)O; Nva(3-Et) = CCC(CC)[C@H](N)C(=O)O; aIle = CC[C@@H](C)[C@H](N)C(=O)O; Cba = N[C@@H](CC1CCC1)C(=O)O; Pen = CC(C)(S)[C@H](N)C(=O)O; dNle = CCCC[C@@H](N)C(=O)O; Pip = O=C(O)[C@@H]1CCCCN1; Nle = CCCC[C@H](N)C(=O)O; Nva = CCC[C@H](N)C(=O)O; Dap = NC[C@H](N)C(=O)O; Aib = CC(C)(N)C(=O)O; GABA = NCCCC(=O)O

B1: BCY19722 (peptide)
peptide: ACDLTTHNCQ[Trp(6-Me)]GICA-NH2
modifications: linker 2-9-14 via TATA; N-terminus assumed
SMILES: CC[C@H](C)[C@@H]1NC(=O)CNC(=O)[C@H](Cc2c[nH]c3cc(C)ccc23)NC(=O)[C@H](CCC(N)=O)NC(=O)[C@@H]2CSCCC(=O)N3CN(CN(C3)C(=O)CCSC[C@@H](C(=O)N[C@@H](C)C(N)=O)NC1=O)C(=O)CCSC[C@H](NC(=O)[C@H](C)N)C(=O)N[C@@H](CC(=O)O)C(=O)N[C@@H](CC(C)C)C(=O)N[C@@H]([C@@H](C)O)C(=O)N[C@@H]([C@@H](C)O)C(=O)N[C@@H](Cc1c[nH]cn1)C(=O)N[C@@H](CC(N)=O)C(=O)N2
notes: scaffold TATA
B2: BCY19707 (peptide)
peptide: ACNLQAPCMLTGK[Nva(3-Et)]CA-NH2
modifications: linker 2-8-15 via TATA; N-terminus assumed
SMILES: CCC(CC)[C@@H]1NC(=O)[C@H](CCCCN)NC(=O)CNC(=O)[C@H]([C@@H](C)O)NC(=O)[C@H](CC(C)C)NC(=O)[C@H](CCSC)NC(=O)[C@@H]2CSCCC(=O)N3CN(CN(C3)C(=O)CCSC[C@@H](C(=O)N[C@@H](C)C(N)=O)NC1=O)C(=O)CCSC[C@H](NC(=O)[C@H](C)N)C(=O)N[C@@H](CC(N)=O)C(=O)N[C@@H](CC(C)C)C(=O)N[C@@H](CCC(N)=O)C(=O)N[C@@H](C)C(=O)N1CCC[C@H]1C(=O)N2
notes: scaffold TATA
B3: BCY19689 (peptide)
peptide: Ac-[Pen]Y[Cba]PDYLC[dA]DEYC-NH2
modifications: linker 1-8-13 via TATA
SMILES: CC(=O)N[C@@H]1C(=O)N[C@@H](Cc2ccc(O)cc2)C(=O)N[C@@H](CC2CCC2)C(=O)N2CCC[C@H]2C(=O)N[C@@H](CC(=O)O)C(=O)N[C@@H](Cc2ccc(O)cc2)C(=O)N[C@@H](CC(C)C)C(=O)N[C@H]2CSCCC(=O)N3CN(CN(C3)C(=O)CCSC1(C)C)C(=O)CCSC[C@@H](C(N)=O)NC(=O)[C@H](Cc1ccc(O)cc1)NC(=O)[C@H](CCC(=O)O)NC(=O)[C@H](CC(=O)O)NC(=O)[C@@H](C)NC2=O
notes: scaffold TATA
B4: BCY19697 (peptide)
peptide: [Dap]CNLQAPCMLTGKVCA-NH2
modifications: linker 2-8-15 via TATA; N-terminus assumed
SMILES: CSCC[C@@H]1NC(=O)[C@@H]2CSCCC(=O)N3CN(CN(C3)C(=O)CCSC[C@H](NC(=O)[C@@H](N)CN)C(=O)N[C@@H](CC(N)=O)C(=O)N[C@@H](CC(C)C)C(=O)N[C@@H](CCC(N)=O)C(=O)N[C@@H](C)C(=O)N3CCC[C@H]3C(=O)N2)C(=O)CCSC[C@@H](C(=O)N[C@@H](C)C(N)=O)NC(=O)[C@H](C(C)C)NC(=O)[C@H](CCCCN)NC(=O)CNC(=O)[C@H]([C@@H](C)O)NC(=O)[C@H](CC(C)C)NC1=O
notes: scaffold TATA
B5: BCY19685 (peptide)
peptide: Ac-CY[Cba]PDYLC[dNle]DEYC-NH2
modifications: linker 1-8-13 via TATA
SMILES: CCCC[C@H]1NC(=O)[C@@H]2CSCCC(=O)N3CN(CN(C3)C(=O)CCSC[C@H](NC(C)=O)C(=O)N[C@@H](Cc3ccc(O)cc3)C(=O)N[C@@H](CC3CCC3)C(=O)N3CCC[C@H]3C(=O)N[C@@H](CC(=O)O)C(=O)N[C@@H](Cc3ccc(O)cc3)C(=O)N[C@@H](CC(C)C)C(=O)N2)C(=O)CCSC[C@@H](C(N)=O)NC(=O)[C@H](Cc2ccc(O)cc2)NC(=O)[C@H](CCC(=O)O)NC(=O)[C@H](CC(=O)O)NC1=O
notes: scaffold TATA
B6: BCY19732 (peptide)
peptide: ACDLTT[Ala(2-furyl)]NCQWGICA-NH2
modifications: linker 2-9-14 via TATA; N-terminus assumed
SMILES: CC[C@H](C)[C@@H]1NC(=O)CNC(=O)[C@H](Cc2c[nH]c3ccccc23)NC(=O)[C@H](CCC(N)=O)NC(=O)[C@@H]2CSCCC(=O)N3CN(CN(C3)C(=O)CCSC[C@@H](C(=O)N[C@@H](C)C(N)=O)NC1=O)C(=O)CCSC[C@H](NC(=O)[C@H](C)N)C(=O)N[C@@H](CC(=O)O)C(=O)N[C@@H](CC(C)C)C(=O)N[C@@H]([C@@H](C)O)C(=O)N[C@@H]([C@@H](C)O)C(=O)N[C@@H](Cc1ccco1)C(=O)N[C@@H](CC(N)=O)C(=O)N2
notes: scaffold TATA
B7: BCY19706 (peptide)
peptide: ACNLQAPCMLTGK[aIle]CA-NH2
modifications: linker 2-8-15 via TATA; N-terminus assumed
SMILES: CC[C@@H](C)[C@@H]1NC(=O)[C@H](CCCCN)NC(=O)CNC(=O)[C@H]([C@@H](C)O)NC(=O)[C@H](CC(C)C)NC(=O)[C@H](CCSC)NC(=O)[C@@H]2CSCCC(=O)N3CN(CN(C3)C(=O)CCSC[C@@H](C(=O)N[C@@H](C)C(N)=O)NC1=O)C(=O)CCSC[C@H](NC(=O)[C@H](C)N)C(=O)N[C@@H](CC(N)=O)C(=O)N[C@@H](CC(C)C)C(=O)N[C@@H](CCC(N)=O)C(=O)N[C@@H](C)C(=O)N1CCC[C@H]1C(=O)N2
notes: scaffold TATA
B8: BCY19723 (peptide)
peptide: ACDLTTHNCQ[Trp(7-Me)]GICA-NH2
modifications: linker 2-9-14 via TATA; N-terminus assumed
SMILES: CC[C@H](C)[C@@H]1NC(=O)CNC(=O)[C@H](Cc2c[nH]c3c(C)cccc23)NC(=O)[C@H](CCC(N)=O)NC(=O)[C@@H]2CSCCC(=O)N3CN(CN(C3)C(=O)CCSC[C@@H](C(=O)N[C@@H](C)C(N)=O)NC1=O)C(=O)CCSC[C@H](NC(=O)[C@H](C)N)C(=O)N[C@@H](CC(=O)O)C(=O)N[C@@H](CC(C)C)C(=O)N[C@@H]([C@@H](C)O)C(=O)N[C@@H]([C@@H](C)O)C(=O)N[C@@H](Cc1c[nH]cn1)C(=O)N[C@@H](CC(N)=O)C(=O)N2
notes: scaffold TATA
B9: BCY19701 (peptide)
peptide: ACNLQA[Pip]CMLTGKVCA-NH2
modifications: linker 2-8-15 via TATA; N-terminus assumed
SMILES: CSCC[C@@H]1NC(=O)[C@@H]2CSCCC(=O)N3CN(CN(C3)C(=O)CCSC[C@@H](C(=O)N[C@@H](C)C(N)=O)NC(=O)[C@H](C(C)C)NC(=O)[C@H](CCCCN)NC(=O)CNC(=O)[C@H]([C@@H](C)O)NC(=O)[C@H](CC(C)C)NC1=O)C(=O)CCSC[C@H](NC(=O)[C@H](C)N)C(=O)N[C@@H](CC(N)=O)C(=O)N[C@@H](CC(C)C)C(=O)N[C@@H](CCC(N)=O)C(=O)N[C@@H](C)C(=O)N1CCCC[C@H]1C(=O)N2
notes: scaffold TATA
B10: BCY19704 (peptide)
peptide: ACNLQAPCM[Nva]TGKVCA-NH2
modifications: linker 2-8-15 via TATA; N-terminus assumed
SMILES: CCC[C@@H]1NC(=O)[C@H](CCSC)NC(=O)[C@@H]2CSCCC(=O)N3CN(CN(C3)C(=O)CCSC[C@@H](C(=O)N[C@@H](C)C(N)=O)NC(=O)[C@H](C(C)C)NC(=O)[C@H](CCCCN)NC(=O)CNC(=O)[C@H]([C@@H](C)O)NC1=O)C(=O)CCSC[C@H](NC(=O)[C@H](C)N)C(=O)N[C@@H](CC(N)=O)C(=O)N[C@@H](CC(C)C)C(=O)N[C@@H](CCC(N)=O)C(=O)N[C@@H](C)C(=O)N1CCC[C@H]1C(=O)N2
notes: scaffold TATA
B11: BCY19686 (peptide)
peptide: Ac-CY[Cba]PD[Dopa]LC[dA]DEYC-NH2
modifications: linker 1-8-13 via TATA
SMILES: CC(=O)N[C@H]1CSCCC(=O)N2CN3CN(C2)C(=O)CCSC[C@H](NC(=O)[C@H](CC(C)C)NC(=O)[C@H](Cc2ccc(O)c(O)c2)NC(=O)[C@H](CC(=O)O)NC(=O)[C@@H]2CCCN2C(=O)[C@H](CC2CCC2)NC(=O)[C@H](Cc2ccc(O)cc2)NC1=O)C(=O)N[C@H](C)C(=O)N[C@@H](CC(=O)O)C(=O)N[C@@H](CCC(=O)O)C(=O)N[C@@H](Cc1ccc(O)cc1)C(=O)N[C@H](C(N)=O)CSCCC3=O
notes: scaffold TATA
B12: BCY19710 (peptide)
peptide: ACNLQA[Nva]CMLTGKVCA-NH2
modifications: linker 2-8-15 via TATA; N-terminus assumed
SMILES: CCC[C@@H]1NC(=O)[C@H](C)NC(=O)[C@H](CCC(N)=O)NC(=O)[C@H](CC(C)C)NC(=O)[C@H](CC(N)=O)NC(=O)[C@@H](NC(=O)[C@H](C)N)CSCCC(=O)N2CN3CN(C2)C(=O)CCSC[C@@H](C(=O)N[C@@H](C)C(N)=O)NC(=O)[C@H](C(C)C)NC(=O)[C@H](CCCCN)NC(=O)CNC(=O)[C@H]([C@@H](C)O)NC(=O)[C@H](CC(C)C)NC(=O)[C@H](CCSC)NC(=O)[C@H](CSCCC3=O)NC1=O
notes: scaffold TATA

Biological target: T1, Human NKp46 Fc tag (Acro Biosystems, NC1-H5257) (human, UniProt O76036 22-255)
T1 construct: bought; also called Fc-tagged human NKp46
Experiment: SPR Method 1 and/or 2
Method in brief: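 Fc-tagged human NKp46 captured on anti-human IgG surface (500–1000 RU); compounds run in PBS-P+ with 2% DMSO at 25 °C, 50 μL/min, 60 s association, 400 s dissociation. Double-referenced, DMSO-corrected; KD from steady-state 1:1 fit, kinetic constants from kinetic 1:1 fit where appropriate.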

T1 sequence (O76036 22-255 limits assumed): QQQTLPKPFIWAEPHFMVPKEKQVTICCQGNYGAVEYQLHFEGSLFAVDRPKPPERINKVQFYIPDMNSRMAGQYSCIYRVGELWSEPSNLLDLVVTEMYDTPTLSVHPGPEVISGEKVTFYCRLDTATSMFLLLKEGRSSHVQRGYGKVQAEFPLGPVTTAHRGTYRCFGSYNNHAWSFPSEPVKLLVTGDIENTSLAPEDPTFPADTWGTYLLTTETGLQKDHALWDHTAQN

Row | Kd | Binder
1 | 1460 nM | B1
2 | 1050 nM | B2
3 | 16 nM | B3
4 | 598 nM | ACDLTTHNCQWGIC[Aib]-NH2 (linker 2-9-14 via TATA, scaffold TATA) [BCY19717]
5 | 3730 nM | B4
6 | 1390 nM | ACDLTTHNCQ[Trp(6-F)]GICA-NH2 (linker 2-9-14 via TATA, scaffold TATA) [BCY19724]
7 | 17 nM | Ac-[dC]Y[Cba]PDYLC[dA]DEYC-NH2 (linker 1-8-13 via TATA, scaffold TATA) [BCY19693]
8 | 10 nM | B5
9 | 964 nM | B6
10 | 1200 nM | B7
11 | 2270 nM | B8
12 | 4030 nM | B9
13 | 457 nM | ACDLTTHNCQ[Trp(5-F)]GICA-NH2 (linker 2-9-14 via TATA, scaffold TATA) [BCY19725]
14 | 1620 nM | B10
15 | 374 nM | ACDLTTHNCQ[Trp(2-Me)]GICA-NH2 (linker 2-9-14 via TATA, scaffold TATA) [BCY19721]
16 | 19 nM | Ac-CY[Cba]PDYL[Pen][dA]DEYC-NH2 (linker 1-8-13 via TATA, scaffold TATA) [BCY19690]
17 | 44 nM | B11
18 | 28 nM | Ac-CY[Cba]PD[Tyr(2-F)]LC[dA]DEYC-NH2 (linker 1-8-13 via TATA, scaffold TATA) [BCY19687]
19 | 2610 nM | [GABA]CNLQAPCMLTGKVCA-NH2 (linker 2-8-15 via TATA, scaffold TATA) [BCY19699]
20 | 2360 nM | B12
21 | 1690 nM | ACNLQAPCM[Nle]TGKVCA-NH2 (linker 2-8-15 via TATA, scaffold TATA) [BCY19703]
